Results published in patent EP4474393A1.

Legend:
Assay in all cases: cell-based or functional assay
[1] = target: HIV-1 envelope proteins of the multiclade panel of 119 pseudoviruses
[2] = target: HIV-1 envelope proteins of the panel of 100 clade C HIV-1 pseudoviruses
[3] = target: HIV-1 envelope proteins of the panel of 12 global reference pseudovirus strains of HIV-1
[4] = target: HIV-1 envelope proteins of the panel of 185 pseudoviruses generated from the Antibody Mediated Prevention Trials
[5] = target: HIV-1 envelope proteins of the panel of 7 pseudoviruses selected from the 'Resistant panel to CD4bs bNAbs'
[6] = target: HIV-1 envelope proteins of the panel of 9 pseudoviruses resistant against CD4bs bNAbs
[7] = target: HIV-1 envelope proteins of the panel of 8 pseudoviruses insensitive to neutralization by CD4bs bNAbs

B1: 04_A06 (antibody, V domains shown)
VH: SVRLDQSGTAVKKPGASVRVSCRAPDSFTVYRPRLSAYFIGEFNIHWLRQAPGQGLEWLGFVNIFRGAVKYSSRFQGRITITRDTSSETSYLDLGALKADDTATYYCAWDKNVDDNPWRLDSWGQGTLVIVSS
VL: YIQVTQSPSSLSASIGDTITVACEVSQDVGWAVNWYHQRPGRPPYNLIYTAHNLAPGVASRFRGSRVGTYFTLTINNLLPEDVGTYYCQVFDSFAPGGTRVDL
Q: B1 was tested. Which geometric mean IC50, TZM-bl cell pseudovirus neutralization assay [1] did it give?
A: The geometric mean IC50, TZM-bl cell pseudovirus neutralization assay was 0.036 µg/mL.

Q: And the neutralization breadth, TZM-bl cell pseudovirus neutralization assay, up to 10 µg/ml [1]?
A: Its neutralization breadth, TZM-bl cell pseudovirus neutralization assay, up to 10 µg/ml is 99%.

Q: And the geometric mean IC50, TZM-bl cell pseudovirus neutralization assay [2]?
A: Its geometric mean IC50, TZM-bl cell pseudovirus neutralization assay is 0.057 µg/mL.

Q: What about the neutralization breadth, TZM-bl cell pseudovirus neutralization assay, up to 10 µg/ml [2] of the same binder?
A: The neutralization breadth, TZM-bl cell pseudovirus neutralization assay, up to 10 µg/ml was 99%.

Q: What about the geometric mean IC50, TZM-bl cell pseudovirus neutralization assay [3] of the same binder?
A: Its geometric mean IC50, TZM-bl cell pseudovirus neutralization assay is 0.038 µg/mL.

Q: What about the neutralization breadth, TZM-bl cell pseudovirus neutralization assay [3] of the same binder?
A: Its neutralization breadth, TZM-bl cell pseudovirus neutralization assay is 100%.

Q: What about the GeoMean IC50, TZM-bl cell pseudovirus neutralization assay [4] of the same binder?
A: Its GeoMean IC50, TZM-bl cell pseudovirus neutralization assay is 0.084 µg/mL.

Q: What about the neutralization breadth, TZM-bl cell pseudovirus neutralization assay [4] of the same binder?
A: Its neutralization breadth, TZM-bl cell pseudovirus neutralization assay is under 98%.

Q: And the IC50, TZM-bl cell pseudovirus neutralization assay [5]?
A: The IC50, TZM-bl cell pseudovirus neutralization assay was 0.153 µg/mL.

Q: What about the neutralization breadth, TZM-bl cell pseudovirus neutralization assay, up to 10 µg/ml [5] of the same binder?
A: The neutralization breadth, TZM-bl cell pseudovirus neutralization assay, up to 10 µg/ml was 86%.

Q: And the neutralization breadth, TZM-bl cell pseudovirus neutralization assay, up to 10 µg/ml [6]?
A: The neutralization breadth, TZM-bl cell pseudovirus neutralization assay, up to 10 µg/ml was 100%.

B2: 04_B09 (antibody, V domains shown)
VH: SVRLDQSGTAVKKPGASVRVSCRAPDSFTVYRPRLSAYFIGEFNIHWLRQAPGQGLEWLGFVNIFRGAVKYSSAFRGRITITRDTSLETSYLDLGALKPDDTATYFCAWDKNVDDNPWRLDSWGQGTLVVVSS
VL: YIQVTQSPSSLSASVGDTITVACQVSQDVGWAVNWYHQRPGRPPYNLIYTTSNLAPGVASRFRGTRVATYFTLTINNLLPEDVGTYYCQVFESFAPGGTRVDLR
Q: How did the geometric mean IC50, TZM-bl cell pseudovirus neutralization assay [3] turn out when B2 was run?
A: The geometric mean IC50, TZM-bl cell pseudovirus neutralization assay was under 0.05 µg/mL.

Q: What about the neutralization breadth, TZM-bl cell pseudovirus neutralization assay [3] of the same binder?
A: The neutralization breadth, TZM-bl cell pseudovirus neutralization assay was 100%.

B3: 01_B01 (antibody, V domains shown)
VH: HVQLWQSGAEVKKPGASVKISCAAWGFGTTSGYSFRDYRIHWVRQVPGQGFQWMGHIQPRYGAVNYAHQFQGRITMTREVSFDASGGTAYMELRSLRSDDTATYYCVTHKLYDGEDASDLAWRLDPWGQGTRVTVSS
VL: GVHLTQSPASLSASVGDRVTFTCQASQDITNAINWYQLRPGKTPKLMIHDGSTLRRGVPSRFAGGGFGTKFTFTIDNLQPEDLATYFCQHYEFFPPAGTQVELN
Q: Which geometric mean IC50, TZM-bl cell pseudovirus neutralization assay [3] does the source give for B3 here?
A: Its geometric mean IC50, TZM-bl cell pseudovirus neutralization assay is under 0.05 µg/mL.

Q: And the neutralization breadth, TZM-bl cell pseudovirus neutralization assay [3]?
A: Its neutralization breadth, TZM-bl cell pseudovirus neutralization assay is 100%.

B4: 01_D03 (antibody, V domains shown)
VH: HVQLWQSGAEVKKPGASVKISCSAWGFGTTSGYSFRDYRVHWVRHIAGQGFQWMGHMQPRYGAVNYARQFQGRITMTREVSFDASGGTAYMELRSLRSDDTAVYYCVTHKLYDGEDASDLTWRLDPWGQGTRVIVSS
VL: GVHLTQSPASLSASVGDRVTFTCQASQDITNAINWYQLRPGKTPKLMIHDGSTLRRGVPSRFAGSGFGTKFTFTIDNLQPEDLATYFCQHYEFFPPVGTQVELN
Q: For B4, which geometric mean IC50, TZM-bl cell pseudovirus neutralization assay [3] is on record?
A: Its geometric mean IC50, TZM-bl cell pseudovirus neutralization assay is 0.021 µg/mL.

Q: What about the neutralization breadth, TZM-bl cell pseudovirus neutralization assay [3] of the same binder?
A: Its neutralization breadth, TZM-bl cell pseudovirus neutralization assay is 100%.

Q: What about the neutralization breadth, TZM-bl cell pseudovirus neutralization assay [7] of the same binder?
A: Its neutralization breadth, TZM-bl cell pseudovirus neutralization assay is 88%.

B5: 05_C07 (antibody, V domains shown)
VH: HVQLWQSGAEVKKPGASVKISCSAWGFGTRSGYTFRDYRIHWVRQVPRQGFEWMGHLHPAYGAVNYARQFQGRIIMTREVSFDGSGGTVYMELRSLRSDDTATYYCVTHKLYDGEDASDLTWRLDPWGQGTRVTVSS
VL: GVSLTQSPASLCASVGDRVTFTCQASQDITNAINWYQLRPGKTPKLMIHDGSTLRRGVPSRFAGSGFGTRFTFTIDNLQPEDLATYFCQHYEFFPPAGTQVDFN
Q: Which geometric mean IC50, TZM-bl cell pseudovirus neutralization assay [3] does the source give for B5 here?
A: The geometric mean IC50, TZM-bl cell pseudovirus neutralization assay was under 0.05 µg/mL.

Q: What about the neutralization breadth, TZM-bl cell pseudovirus neutralization assay [3] of the same binder?
A: The neutralization breadth, TZM-bl cell pseudovirus neutralization assay was 100%.
